US20020193571A1 (published 2002)

Molecular target: T1, human WSX receptor (hWSXR), antigen of the phage antigen-binding ELISA (human, UniProt P48357 22-841)
T1 construct: both panning antigens hold the ECD; also called huWSXR
T1 sequence: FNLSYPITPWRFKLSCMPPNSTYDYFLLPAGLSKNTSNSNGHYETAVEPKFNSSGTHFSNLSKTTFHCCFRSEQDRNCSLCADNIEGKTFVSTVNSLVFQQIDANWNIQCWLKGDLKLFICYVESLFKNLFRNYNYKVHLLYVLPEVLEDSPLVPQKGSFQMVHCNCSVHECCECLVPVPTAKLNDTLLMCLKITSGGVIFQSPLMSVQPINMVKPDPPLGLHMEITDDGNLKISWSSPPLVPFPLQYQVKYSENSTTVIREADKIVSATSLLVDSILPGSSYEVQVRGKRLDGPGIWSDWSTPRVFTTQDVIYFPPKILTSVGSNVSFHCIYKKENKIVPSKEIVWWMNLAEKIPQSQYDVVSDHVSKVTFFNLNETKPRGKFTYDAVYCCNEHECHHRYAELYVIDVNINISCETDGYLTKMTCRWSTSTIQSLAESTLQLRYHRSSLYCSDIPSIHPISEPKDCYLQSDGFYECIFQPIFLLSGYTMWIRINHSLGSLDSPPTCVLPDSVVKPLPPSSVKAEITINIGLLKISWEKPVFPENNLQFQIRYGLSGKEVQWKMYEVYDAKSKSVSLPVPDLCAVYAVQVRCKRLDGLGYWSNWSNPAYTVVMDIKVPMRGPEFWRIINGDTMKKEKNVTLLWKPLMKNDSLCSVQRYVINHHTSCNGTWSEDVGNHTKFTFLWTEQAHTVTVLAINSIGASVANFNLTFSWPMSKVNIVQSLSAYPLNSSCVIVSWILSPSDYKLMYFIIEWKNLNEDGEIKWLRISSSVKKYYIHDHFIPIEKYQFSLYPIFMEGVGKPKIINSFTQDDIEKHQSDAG
Test: phage antigen-binding ELISA

B1: agonist antibody clone #17 scFv (scFv)
scFv: QVRLQQSGGGLVQPGRSLRLSCAASGFTFDDYAMHWVRQAPGKGLEWVSGMTWNSGSIGYADSVKGRFTISRDNAKNSLYLQMNSLRAEDTAVYYCAREPHNTDAFDIWGRGTLVTVSSGGGGPGGGGSGGGGSDVVMTQSPSFLSAFVGDTITITCRASQGIYNYLAWYQQKPGKAPKLLIYAASTLQSGVPSRFSGSGSGTEFTLTISSLQPEDFGTYYCQQLISYPLTFGGGTKVEIK
notes: Human scFv from a phage library; tested as scFv phage and as soluble scFv
B1: binds.

B2: agonist antibody clone #3 scFv (scFv)
scFv: EVQLVQSGAEVKKPGASVKVSCKASGYTFTGYYMYWVRQAPGQGLEWMGWINPNSGGTNYAQKFQGRVTMTRDTSIGTAYMELSRLSSDDTAVYYCARDRYYGSSAYHRGSYYMDVWGRGTLVTVSSGGGGTGGGGSGGGGSSELTQDPAVSVALGQTVRITCQGDSLRSYYASWYQQKPGQAPVLVIYGKNNRPSGIPDRFSGSSSGNTASLTITGAQAEDEADYYCNSRDSSGNHVVFGGGTKLTVL
notes: Human scFv from a phage library
B2: binds.
